From article PMC8891976

Columns and labels:
[1] = target: ASC (apoptosis-associated speck-like protein containing a CARD) (UniProt Q9ULZ3); test: real-time NMR
[2] = target: ASCb (alternative splicing isoform of ASC) (UniProt Q9ULZ3); test: real-time NMR

Substance | k1aveCARD (average apparent rate constant k1 of the residues of the CARD) [1] [h⁻¹] | k1avePYD (average apparent rate constant k1 of the residues of the PYD) [1] [h⁻¹] | k2aveCARD (average apparent rate constant k2 of the residues of the CARD) [1] [h⁻¹] | k2avePYD (average apparent rate constant k2 of the residues of the PYD) [1] [h⁻¹] | k1 (apparent oligomerization rate constant, exponential fit) [2] [h⁻¹] | k1aveCARD (average apparent rate constant k1 of the residues of the CARD) [2] [h⁻¹] | k1avePYD (average apparent rate constant k1 of the residues of the PYD) [2] [h⁻¹] | k2 (apparent oligomerization rate constant, exponential fit) [2] [h⁻¹] | k2aveCARD (average apparent rate constant k2 of the residues of the CARD) [2] [h⁻¹] | k2avePYD (average apparent rate constant k2 of the residues of the PYD) [2] [h⁻¹] | reaction order m of oligomer formation (column of 495 μM) [2] | reaction order m of oligomer formation (column of 704 μM) [2]
ASC (apoptosis-associated speck-like protein containing a CARD) (from UniProt Q9ULZ3 1-195) (natural protein) | 0.12 | 0.21 | 0.02 | 0.05 | – | – | – | – | – | – | – | –
ASCb (alternative splicing isoform of ASC) (from UniProt Q9ULZ3-2 1-176) (natural protein) | – | – | – | – | 0.02 | 0.0288 | 0.0269 | 0.02 | 0.0288 | 0.0269 | 3.6 | 3.6
